Common to all, as to details: glycan lost; control: wild type
Data set [1] in a line: whole-cell patch clamp in CHO. In general terms: In patch-clamp work, channel activity is measured electrically.
Data set [2] is described as follows: cell surface biotinylation, western blot. Background: Immunoblotting shows a protein as a band on a membrane.
Data set [3] is described as follows: automated whole-cell patch clamp, inactivation width at +80 mV.

B1: rat Kv3.4 (rKv3.4): N257Q (protein)
parent chain: MISSVCVSSYRGRKSGNKPPSKTCLKEEMAKGEASEKIIINVGGTRHETYRSTLRTLPGTRLAWLADPDGGGRPESDGGGAGSSGSSGGGGGCEFFFDRHPGVFAYVLNYYRTGKLHCPADVCGPLFEEELTFWGIDETDVEPCCWMTYRQHRDAEEALDIFESPDGGGGGAGPGDEAGDDERELALQRLGPHEGGSGPGAGSGGCRGWQPRMWALFEDPYSSRAARVVAFASLFFILVSITTFCLETHEAFNIDRNVTEIHRVGNITSVRFRREVETEPILTYIEGVCVMWFTLEFLVRIVCCPDTLDFVKNLLNIIDFVAILPFYLEVGLSGLSSKAARDVLGFLRVVRFVRILRIFKLTRHFVGLRVLGHTLRASTNEFLLLIIFLALGVLIFATMIYYAERIGARPSDPRGNDHTDFKNIPIGFWWAVVTMTTLGYGDMYPKTWSGMLVGALCALAGVLTIAMPVPVIVNNFGMYYSLAMAKQKLPKKRKKHVPRPPQLESPIYCKSEETSPRDSTYSDTSPPAREEGMVERKRADSKQNGDANAVLSDEEGAGLTQPLASAPTPEERRALRRSGTRDRNKKAAACFLLSAGDYACADGSVQKEGSVEPKACVPVSHTCAL
As to B1, the “other: channel current” value in data set [1] is given as “decreases”. Further, the localisation_or_trafficking entry in data set [2] is “no change”. For the same protein, the “other: channel inactivation delay and its heterogeneity” value in data set [3] is “decreases”.

B2: rat Kv3.4 (rKv3.4): N266Q (protein)
parent chain: MISSVCVSSYRGRKSGNKPPSKTCLKEEMAKGEASEKIIINVGGTRHETYRSTLRTLPGTRLAWLADPDGGGRPESDGGGAGSSGSSGGGGGCEFFFDRHPGVFAYVLNYYRTGKLHCPADVCGPLFEEELTFWGIDETDVEPCCWMTYRQHRDAEEALDIFESPDGGGGGAGPGDEAGDDERELALQRLGPHEGGSGPGAGSGGCRGWQPRMWALFEDPYSSRAARVVAFASLFFILVSITTFCLETHEAFNIDRNVTEIHRVGNITSVRFRREVETEPILTYIEGVCVMWFTLEFLVRIVCCPDTLDFVKNLLNIIDFVAILPFYLEVGLSGLSSKAARDVLGFLRVVRFVRILRIFKLTRHFVGLRVLGHTLRASTNEFLLLIIFLALGVLIFATMIYYAERIGARPSDPRGNDHTDFKNIPIGFWWAVVTMTTLGYGDMYPKTWSGMLVGALCALAGVLTIAMPVPVIVNNFGMYYSLAMAKQKLPKKRKKHVPRPPQLESPIYCKSEETSPRDSTYSDTSPPAREEGMVERKRADSKQNGDANAVLSDEEGAGLTQPLASAPTPEERRALRRSGTRDRNKKAAACFLLSAGDYACADGSVQKEGSVEPKACVPVSHTCAL
For the protein B2, the “other: channel current” value in data set [1] was “decreases”. For the same protein, the localisation_or_trafficking result in data set [2] is listed as “no change”. In addition, the “other: channel inactivation delay and its heterogeneity” value in data set [3] is given as “decreases”.

(Values after PMC12455010.)
